Data on three molecules can be found in patent publication US20230053449A1, “DC-SIGN ANTIBODY DRUG CONJUGATES” (NOVARTIS AG, priority 2018, published 2023).

Data set [1] can be described thus: Aggregation by analytical size-exclusion chromatography (AnSEC). The note with it: conjugate with linker-payload C-5. The data set is classed as physicochemical. The protocol: Conjugates were profiled using analytical size-exclusion chromatography (AnSEC) on Zenix C-300 3 um 7.8×150 mm column (Sepax Technologies). Alternatively, samples were tested on a KW-803 column (TIC Cat #6960940) Aggregation was analyzed based on analytical size exclusion chromatography and reported as the % monomer based on AUC of the assigned monomer peak.
The sample shown below in Table 20 achieved >90% conjugation efficiency and >95% purity as assessed by AnSEC. This illustrates that conjugates of the invention can be made efficiently and have favorable characteristics.

For the next data set, the target named is T1, L-SIGN (Homo sapiens, UniProt Q9H2X3).
T1 construct: expressed in transfected cells; host or cells: K562 (retroviral transduction)
T1 sequence (Q9H2X3 1-399): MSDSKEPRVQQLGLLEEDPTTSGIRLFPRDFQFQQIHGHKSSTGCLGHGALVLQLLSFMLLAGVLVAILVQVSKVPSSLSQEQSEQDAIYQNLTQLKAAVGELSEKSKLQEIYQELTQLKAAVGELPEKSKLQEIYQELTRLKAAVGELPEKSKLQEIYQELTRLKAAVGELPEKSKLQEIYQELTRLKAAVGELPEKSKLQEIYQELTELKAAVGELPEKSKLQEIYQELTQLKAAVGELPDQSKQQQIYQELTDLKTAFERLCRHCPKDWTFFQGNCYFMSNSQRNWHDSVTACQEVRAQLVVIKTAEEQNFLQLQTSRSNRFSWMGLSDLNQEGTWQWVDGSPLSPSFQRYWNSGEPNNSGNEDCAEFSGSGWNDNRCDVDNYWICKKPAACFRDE
In words: FACS binding to L-SIGN expressing K562 cells. The protocol:
(§1) The affinity of various antibodies and ADCs to DC-SIGN and its species orthologues was determined using FACS. Purified IgGs were titrated to determine EC50 values for binding to cell surface expressed DC-SIGN.
For this purpose, human DC-SIGN expressing or cynomolgus monkey DC-SIGN expressing stable CHO cell lines or K562 expressing DC-SIGN or K562 expressing L-SIGN cell lines were checked for density and viability using VICELL (Beckman Coulter), and washed once with 4° C. PBS. Cells were stained with DAPI (0.5 ug/mL) diluted in PBS for 30 min on ice. Cells were diluted into 4° C. FACS buffer (PBS, 10 mM EDTA, 2% FBS). 125 μl of cells were seeded (10,000 cells/well) into 96-well v-bottom plates (Nunc cat #442587) and centrifuged for 4 min at 1500 rpm at 4° C. Supernatant was removed. […] After the final wash, cells were resuspended in Fixative Buffer (Biolegend, 420801) and 90 μl of FACS buffer followed by readout on the flow cytometry machine (BD LSRFortessa Cell Analyzer; Cat #647177). Geometric Mean fluorescence intensity (MFI) of live, single cells was calculated in Flowjo 10.4.2 and exported into Graphpad Prism7 for EC50 determination.
Selectivity was assessed by measuring apparent binding affinities to isogenic cell pairs engineered to overexpress DC-SIGN as well as cell lines expressing DC-SIGN paralog L-SIGN.
Background: A flow cytometer gives signals particle by particle.

Data set [2] addresses T2, cynomolgus monkey DC-SIGN, full length, stably expressed on CHO cells (cynomolgus monkey, UniProt Q95J96 1-403 (rhesus entry)).
T2 construct: also called cyno DC-SIGN CHO
T2 sequence: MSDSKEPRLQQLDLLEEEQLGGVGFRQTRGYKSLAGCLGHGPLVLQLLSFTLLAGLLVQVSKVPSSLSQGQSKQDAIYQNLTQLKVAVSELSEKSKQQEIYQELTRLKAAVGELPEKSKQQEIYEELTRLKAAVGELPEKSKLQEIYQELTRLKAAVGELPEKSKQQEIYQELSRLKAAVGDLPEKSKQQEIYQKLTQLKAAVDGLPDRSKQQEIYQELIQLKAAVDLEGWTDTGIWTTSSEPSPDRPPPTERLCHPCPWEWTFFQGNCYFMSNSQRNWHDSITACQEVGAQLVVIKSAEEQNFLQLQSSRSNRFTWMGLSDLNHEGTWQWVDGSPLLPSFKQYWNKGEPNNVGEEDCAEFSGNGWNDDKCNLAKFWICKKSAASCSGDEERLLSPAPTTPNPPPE
In words: flow cytometry, CHO cells expressing cyno DC-SIGN. As for the experimental part:
as §1
(§2) For this purpose, human DC-SIGN expressing or cynomolgus monkey DC-SIGN expressing stable CHO cell lines or K562 expressing DC-SIGN or K562 expressing L-SIGN cell lines were checked for density and viability using VICELL (Beckman Coulter), and washed once with 4° C. PBS. Cells were stained with DAPI (0.5 ug/mL) diluted in PBS for 30 min on ice. Cells were diluted into 4° C. FACS buffer (PBS, 10 mM EDTA, 2% FBS). 125 μl of cells were seeded (10,000 cells/well) into 96-well v-bottom plates (Nunc cat #442587) and centrifuged for 4 min at 1500 rpm at 4° C. Supernatant was removed. […] Following incubation, cells were spun down (1500 rpm, 4 min, 4° C.) and washed two times with FACS buffer. A fluorophore-conjugated anti-hFc gamma-AF-647 (Southern Biotechnology) detection antibody was added at 1:400 dilution and samples were incubated for 1 h on ice in the dark.

Data set [3] deals with T3, human DC-SIGN, full length, stably expressed on CHO or K562 cells (human, UniProt Q9NNX6 1-404).
T3 construct: Also the native/transgenic human DC-SIGN on moDCs, macrophages and Tg+ mouse dendritic cells in the functional entries; also called human DC-SIGN CHO; human DC-SIGN K562
T3 sequence: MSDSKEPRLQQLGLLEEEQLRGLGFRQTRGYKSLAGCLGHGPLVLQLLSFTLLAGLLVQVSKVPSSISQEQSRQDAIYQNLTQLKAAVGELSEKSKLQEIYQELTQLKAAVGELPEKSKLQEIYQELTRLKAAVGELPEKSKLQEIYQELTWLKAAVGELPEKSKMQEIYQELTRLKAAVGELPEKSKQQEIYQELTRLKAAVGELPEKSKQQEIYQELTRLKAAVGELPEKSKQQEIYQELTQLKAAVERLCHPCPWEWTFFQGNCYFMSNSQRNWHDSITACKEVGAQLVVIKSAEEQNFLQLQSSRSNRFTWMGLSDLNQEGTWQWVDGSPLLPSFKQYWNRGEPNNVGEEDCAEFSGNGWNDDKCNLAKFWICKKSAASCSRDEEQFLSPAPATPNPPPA
The data set can be described thus: flow cytometry, CHO cells expressing human DC-SIGN. The protocol:
as §1, §2

Data set [4] concerns the target T3, human DC-SIGN, full length, stably …. In words: flow cytometry, K562 cells expressing human DC-SIGN. As for the experimental part: as §1, §2

Some results are limits rather than exact numbers.

B1: 2B2 Chimeric (antibody)
heavy: EVQLQQSGAELVRPGSSVKMSCKTSGYTFTNYGINWVKQRPGQGLEWIGYIYIGNDYTEYNERFKGKATLTSDTSSSTAHIQLNSLTSEDSAIYFCARLYYGSSLYSYAMDYWGQGTSVTVSSASTKGPSVFPLAPSSKSTSGGTAALGCLVKDYFPCPVTVSWNSGALTSGVHTFPAVLQSSGLYSLSSVVTVPSSSLGTQTYICNVNHKPSNTKVDKRVEPKSCDKTHTCPPCPAPELLGGPSVFLFPPKPKDTLMISRTPEVTCVVVAVSHEDPEVKFNWYVDGVEVHNAKTKPREEQYNSTYRVVSVLTVLHQDWLNGKEYKCKVSNKALAAPIEKTISKAKGQPREPQVYTLPPSREEMTKNQVSLTCLVKGFYPCDIAVEWESNGQPENNYKTTPPVLDSDGSFFLYSKLTVDKSRWQQGNVFSCSVMHEALHNHYTQKSLSLSPGK
light: DIVMTQAAPSVSVTPGESVSISCRSSKSLLHSSGNTYLYWFLQRPGQSPQLLISRMSNLASGVPDRFSGSGSGTAFTLRISRVEAEDVGVYYCMQHLEYPYTFGGGTKLELKRTVAAPSVFIFPPSDEQLKSGTASVVCLLNNFYPREAKVQWKVDNALQSGNSQESVTEQDSKDSTYSLSSTLTLSKADYEKHKVYACEVTHQGLSSPVTKSFNRGEC
As for B1, the “% Monomer” value in data set [1] (after preparative SEC) was 99%; in data set [1] (before preparative SEC), 95.4%.

B2: 2B2 Hz: Humanization of Antibodies 2B2 and 1G12: variable region constructs were designed for humanization and optimization of sequences (antibody)
heavy: QVQLVQSGAEVKKPGASVKVSCKASGYTFTNYGINWVRQAPGQRLEWMGYIYIGNDYTEYNERFKGRVTITSDTSASTAYMELSSLRSEDTAVYYCARLYYGSSLYSYAMDYWGQGTTVTVSSASTKGPSVFPLAPSSKSTSGGTAALGCLVKDYFPCPVTVSWNSGALTSGVHTFPAVLQSSGLYSLSSVVTVPSSSLGTQTYICNVNHKPSNTKVDKRVEPKSCDKTHTCPPCPAPELLGGPSVFLFPPKPKDTLMISRTPEVTCVVVAVSHEDPEVKFNWYVDGVEVHNAKTKPREEQYNSTYRVVSVLTVLHQDWLNGKEYKCKVSNKALAAPIEKTISKAKGQPREPQVYTLPPSREEMTKNQVSLTCLVKGFYPCDIAVEWESNGQPENNYKTTPPVLDSDGSFFLYSKLTVDKSRWQQGNVFSCSVMHEALHNHYTQKSLSLSPGK
light: DIVMTQSPLSLPVTPGEPASISCRSSKSLLHSSGNTYLYWFLQKPGQSPQLLISRMSNLASGVPDRFSGSGSGTDFTLKISRVEAEDVGVYYCMQHLEYPYTFGGGTKVEIKRTVAAPSVFIFPPSDEQLKSGTASVVCLLNNFYPREAKVQWKVDNALQSGNSQESVTEQDSKDSTYSLSSTLTLSKADYEKHKVYACEVTHQGLSSPVTKSFNRGEC
Regarding B2, the “human L-SIGN K562 EC50” value with L-SIGN was over 10 µg/mL.

B3: 1G12 Parental (antibody, V domains shown)
VH: QVQLQQSGPGLVQPSQSLSITCTVSGFSLTNYGVHWVRQSPGKGLEWLGVIWRGESTDYNAAFMSRLSVTKDDSKSQVFFKMNSLQADDTAIYYCARNGGSSGWYFDVWGTGTTVTVSS
VL: DIQMTQTHKFMSTSVGDRVSITCKASQDVTSAVAWYQQTPGQSPNLLIYWTSTRHTGVPDRFTGSGSGTDYTLTISSVQAEDLALYYCQQHYTTPLTFGAGTKLELK
In general, EC50 refers to the midpoint of the concentration-response curve. For B3, the EC50 in data set [2] is 0.07 µg/mL; in data set [3], 0.06 µg/mL; in data set [4] it was 0.02 µg/mL.
